Entries after “also recorded” stand apart in the source; their conditions may differ.
B1: RSpo1: secreted glycoprotein, Wnt agonist, Genbank Accession NP_001033722 (protein, UniProt Q2MKA7 21-263, looked up)
R-spondin-1: SRGIKGKRQRRISAEGSQACAKGCELCSEVNGCLKCSPKLFILLERNDIRQVGVCLPSCPPGYFDARNPDMNKCIKCKIEHCEACFSHNFCTKCKEGLYLHKGRCYPACPEGSSAANGTMECSSPAQCEMSEWSPWGPCSKKQQLCGFRRGSEERTRRVLHAPVGDHAACSDTKETRRCTVRRVPCPEGQKRRKGGQGRRENANRNLARKESKEAGAGSRRRKGQQQQQQQGTVGPLTSAGPA
B2: Dkk1: Wnt inhibitor; murine Dkk1 bearing N-terminal HA-tag and C-terminal FLAG and 6×His tags (protein, UniProt O54908 32-272, looked up)
Dickkopf-related protein 1: TLNSVLINSNAIKNLPPPLGGAGGQPGSAVSVAPGVLYEGGNKYQTLDNYQPYPCAEDEECGSDEYCSSPSRGAAGVGGVQICLACRKRRKRCMRHAMCCPGNYCKNGICMPSDHSHFPRGEIEESIIENLGNDHNAAAGDGYPRRTTLTSKIYHTKGQEGSVCLRSSDCAAGLCCARHFWSKICKPVLKEGQVCTKHKRKGSHGLEIFQRCYCGEGLACRIQKDHHQASNSSRLHTCQRH
modifications: N-terminal HA tag, C-terminal FLAG and 6xHis tags
notes: murine Dkk1 bearing N-terminal HA-tag and C-terminal FLAG and 6×His tags

What was measured:
intestinal explants = test: Growth of intestinal explant (sphere) cultures under Wnt modulation; assay type: cell-based, mouse; settings: for explant growth: intestinal explant culture
Text: Small intestine or colon of C57Bl/6J mice is procured under sterile conditions, minced and mixed with type I collagen gel. Subsequently, these explant containing gels are poured onto transwell cell culture inserts with a collagen gel layer. Transwell cell culture inserts are available commercially from a number if resources e.g. Corning, Signaaldrich. These cell culture inserts are placed into secondary outer dishes containing HAMs F-12 with 20% FCS. Proliferation and histology of the explant is depicted in FIG. 4A-4D. Electron micrographs of the intestinal explants in FIG. 5A-5E reveal that the ultrastructure of the intestinal epithelium is preserved.
Before preparing the tissue, an inner container with a gel as bottom layer was made. The procedure described herein used Cellmatrix type I-A (Nitta Gelatin Inc.) e.g. collagen gel. The inner dish has permeable membrane bottom. Millicell culture plate inserts (Millicell-CM, Millipore Co.) or Falcon cell culture inserts (BD Co.) was used as the inner dish. 1 ml of collagen gel solution was poured into a 30-mm diameter inner dish in combination with 60 mm diameter outer dish and 2 ml of culture media. 0.3 ml collagen gel solution was poured into 10-mm diameter inner dish in combination with a 24-well outer dish and 0.5 ml of culture media.
Small or large intestine was removed from mouse (fetus, neonate, juvenile, or adult) aseptically. The removed tissue was immediately immersed in ice-cold PBS or other culture media/tissue preservative solution such as Ham's F12, MEM, etc. The small intestine or colon are opened lengthwise and washed in ice-cold PBS to remove all luminal contents. The washed tissue was minced with scissors to a size less than about 0.1 mm^3. The minced tissue was mixed in ice-cold collagen gel solution and poured onto the prepared inner dish. The inner dish was placed in an outer dish. The gel was solidified at 37° C. for 30 min. After solidification of the gel, culture media was poured into outer dish. Ham's F12 supplemented with 20% fetal calf serum and 50 μg/ml gentamicin was used as culture medium. The culture can be sustained for over a year at 37° C. in a humidified atmosphere of 5% CO2 in air. Medium was changed about every 7 days.
Three-Dimensional Explant Culture System. The mouse small and large intestine (optimally postnatal days 0-2) was opened lengthwise and washed in PBS to remove all luminal contents. A 1 cm segment was minced immediately and extensively on ice with iris scissors. The minced tissues were embedded in a three-dimensional collagen gel using a double-dish culture system. A 1 ml collagen gel solution (Nitta Gelatin Co.) was poured into a 30-mm dish (Millicell-CM, Millipore Co.), the inner dish, with a nitrocellulose bottom to form an acellular layer. Next, a 1 ml collagen gel solution containing a total of 0.1 g minced tissues was placed on the acellular layer in the dish. This inner dish was placed into a 90-mm outer dish containing 10 ml Ham's F12 supplemented with 20% FCS and 50 μg/ml gentamicin. The culture assembly was carried out for 7-365 days at 37 C in a humidified atmosphere of 5% CO2 in air, and the medium was changed every 7 days. Where appropriate, murine RSpo1-Fc, Dkk1 or DBZ (Calbiochem) were included in the outer dish medium at 500 ng/ml, 0.5-50 μg/ml and 10 μM respectively with change of medium every 1-2 days.
This culture system maintains the cultured cells embedded in the collagen gel under an air-liquid interface environment. Before preparing the tissue, an inner dish with collagen gel bottom layer should be made. The following procedure is done using Cellmatrix type I-A (Nitta Gelatin Inc.) as a premixed type I collagen gel, however, other products are able to use as an extracellular matrix, such as matrigel. The inner dish should have permeable and/or pored membrane bottom, such as a cell culture insert. […]

[1] = system: intestinal epithelial proliferation; settings: cited from earlier work

Row | Molecule | explant growth (intestinal explants) | explant growth (intestinal explants; listed as R-Spondin1) | intestinal proliferation in vivo [1] | effect on epithelial layer of pre-established spheres (intestinal explants; d28 pre-established small or large intestine spheres, treated additional 5d) | long-term regrowth after transient treatment (intestinal explants; jejunal explants, 50 μg/ml for 7 days, then 35d without Dkk1) | growth when added to culture media at the time of plating (intestinal explants; recombinant protein at plating)
1 | B1 | stimulation; also recorded: markedly stimulated; also recorded: increased growth | promoted | strongly augments intestinal proliferation in vivo; also recorded: strongly induce intestinal proliferation in vivo | – | – | –
2 | B2 | inhibited; also recorded: strong inhibition of explant growth | – | rapid cessation of intestinal epithelial proliferation and crypt loss | rapid degeneration of the epithelial layer | lack of long-term repopulation; also recorded: sufficient to ablate culture growth; also recorded: No growth of intestinal spheres was observed | dose-dependent growth inhibition

Reference: patent publication US10704026B2, “Ex vivo culture, proliferation and expansion of intestinal epithelium” (The Board of Trustees of the Leland Stanford Junior …, priority 2008, dated 2020)
